A protein production outcome set (Wang et al. 2014)

Assay: label from the status in PepcDB records

Sequence: MEILKKTGKFLLGVVIGVAIMMFADRYYVKGKRLIADNLPKEPVEYVNPYMGNISHLLVPTYPTVHLPNSMLRVYPERGDFTGDRLGGLPLIVTSHRGSSAFNLSPYQGDEAGLKPVIQYSYDREKIVPYRYQVYLDEANIEVDYAPSHQSAVYSLTFEKDGPAYLVFNSRNGELKCDGNTVSGFQYVDKKTKVYLYAETDKTPEKSGVLASGTVKYGKSSVEGKDAALTLAFSGQKEIGVRYGISFISTEQARKNLEREINSYDVSAIARIGRNEWNDALGKIQVSGGSENDKTVFYTSLYRCYERPVNLSEDGKYYSAFDGKIHEDGGRSFYTDDWIWDTYRATHPLRILIDKERETDIINSYLLMAQQMGTNWMPTFPEVTGDSRRMNSNHAVATVIDAWRKGVRGFDLEKAYEAARKGIEEKTLIPWSAAPSGWLDEFYKEHGYIPALKPGEKETVADVSPWEKRQPVAVTLGTAYDEWCLSQIAAELGKKEDAEYFLARSYNYRNLFNPETRFFHPKDKDGKFIEGVDYRYSGGLGARDYYDENNGYIYRWDVQHNIGDLVSLIGGNEVFTAALDSMFDTPLGMSKWQFYSFLPDHTGNVGMFSMANEPSLHIPYLYNYAGQPWKTQKRIRVLLDQWFRNDLMGVPGDEDGGGMSAFVVFSMMGFYPVTPGSPTYNIGSPVFSDVKIDLGGGNVFEIVADGASHDNKYVQSATLNGEELSGPWFDHSRITAGGVLSLKMGPKANKKWGIGNPPPSVGPMQK
- protein production: failed

Sequence: MEILVVAVGILVDRLTKIWALDKLKKVQDIPIIKNFFDLTYVENRGAAWGIFSGKTLVLSAVTLLVLSAIIVYMIKYRPKSKLARISLSLVISGALGNLYDRVFYKYVVDLFSLHYKDIYYYPVFNVADICVVVGTIMIAIFIVLKDDKKDGKV
- protein production: failed

Sequence: MEIQEMAKRFSPEFKQQAIDYALSNSHEPIATIAQKLGVGYSTLDKWIREANPVGSSKRQLSPEQQRILELEKEVKQLREANDILKKAHVYFLTDHAKKSTR
- protein production: failed

Sequence: MEISCLLNEIKASIRYENQIVHIEETPARDACYAPLELEVRIKAALSGTGIEALYSHQAEAIEKVREGKDLVLCTSTASGKSLTYMIPVFEAVLKDPEATSLYISPLNALVNDQLKAFLEFEGALNSGAGIARYTGALSADQKRKIRDGKTNIVFTNPEMVHMSFLAWHHLWRRFFSNLRFIVVDESHYYRGVIGSNMANVLRRLLRVAEYYGASPQFICCSATIGNPEDHTETLLGREAVVVENNGSLQGPQKFVFWNPPLYMNGRGCTVRRSSFSEASALFTRAVQAGLQTLAFTRSRQGVERMYRTCMELLRDRELPSAICPYRSGYFDREREEIERKMNSGELRGVISTNALELGIDIGGLDVCILDGYPGTVMSARQQAGRAGRSGNESLVLMVAGTNALDQYYMRNPADFFARSSENAVLNPKNPYILAGHLLCAAKEIPLRESDEKYFGGGYSRVVELLEAEGLLAGSDMKYSTDPFPYKQVSLRGIDNNTYSLLAFEGERSFPIEKDIEETLAFRECHPGAVYIHRGESFYINRIDHEKREIHAIKTHDSYYTKPMIDSSVVVQETYAAKPLLHAPEVEVGLGEVEVTDRIAGYRKIRTHSDETMSAHEIEMPPITLQTVALWLKLPDRLQEMIGDHKLDFAGGIHAVEHAIISMYPLHLLVDRSDVGGVSTPSHPDLGSKSGIFIYDGHRGGVGYAEKGYDLIEEVLEGTLKAIESCPCESGCPGCIQSPKCGNNNEPLDKHAAIMLLHELLGKAPYIPPEKKEKHLSEARARKTIPQERKSSGDALDRVRRQLRRENINQEPQAGKEKKEKTFIATDENGGMIGVVSAPTPEKAAAKTFHKKLAGQQGATKEKPLEIRIRDLGAGSDYHFRAWTELFEAAENGDPESKEKKAVKKLFIRKMS
- protein production: failed

Sequence: MEISTKTLHFIEEHREDDTRTLALQSKKYPDVDMAAAVTQIAGRQVAARKIPSWYPVSALWYPPHLSMEQCSSEATALYKASLLEGDTFADLTGGFGIDCSFISRNFKQADYVERQSGLCELALHNFPLLGLGHIRIHNRDGISYLQEMLPVDCLFLDPARRDGHGGKTVAISDCEPDVTVLEPLLVDKAKKVMVKLSPMLDLSLALNELKTVRAVHIVAVNNECKELLLILQKESVSSEVSIHCEHIAGNGESRHYTFTLKQEKTSPCLLADEVGTYLYEPNAAILKAGAFRSLTQTYPVAKLHLNSHLYTSVSLVPDFPGRRFRVEAVSGFGKKELKAFLMDMDKANITIRNFPLSVAELRKRLKLKEGGDDYIFATTLSGGQKVLIRGKKC
- protein production: not failed

Sequence: MEITDVRLRRVETDGRMKAISSITIDGEFVIHDIRVIDGNEGLFVAMPSKRTPDGEFRDIAHPINSGTRAKIQEAVLAAYEVADEPAVNEESSADESVVEEN
- protein production: failed

Sequence: MEKCDFYHIIVLSLNFPGYLKMEYGSTKMEERLSRSPGGKLALWAFYTWCGYFVWAMARYIWVMSRIPDAPVSGFESDLGSTAGKWLGALVGFLFMALVGALLGSIAWYTRPRPARSRRYE
- protein production: failed

Sequence: MEKCSRETLLFIFITISSVATSTSTWMPMDGNYGASYCLSWRLAVETNNVRAWRIVPLQCLRYVEVYMLAGQYDRDVQLTVDQIKVYLNEIILPGDGMDAWILDVDDTCFSNVFYYRLKRYGCDPYDPTGFRTWAMKGESPAIQPVLELFYKLIETGFKVFLVTGRDEETLRQATLENLHNQGFTGYERLIMRTADNKRQSATTYKTRIRKEMMEEGYRIWGNVGDQWSDLQGEYSGDRTFKIPNPMYFVP
- protein production: failed

Sequence: MEKESQTIFDKNVIEFVTVAAEFCAFLERAESMKRSTFVDTSLKILPLLYLKASMLPKCETIGDEAPETYVTEEIYEILRINLAGLMGDKDDYLDVFVQDMVYSDQPIKKSISEDLADIYQDIKDFIFVFQLGLNETMNDSLAICQENFGMLWGQKLVNTLRALHDVKYNLQDNEEEEENNEEGFYEPSEDDSCCEEGGCHCHDDECHCHEGSCHCHDDEK
- protein production: failed

Sequence: MEKIIVRGGKRLNGTVRVEGAKNAVLPIIAAALLASDGKNVLSEVPVLSDVYTINEVLRHLNAEVVFENNQVTIDASKELNIEAPFEYVRKMRASVQVMGPLLARNGRARIALPGGCAIGSRPIDQHLKGFEAMGAKVQVGNGFVEAYVEGELKGAKIYLDFPSVGATENIMSAATLAKGTTILENAAKEPEIVDLANFLNAMGAKVRGAGTGTIRIEGVDKLYGANHSIIPDRIEAGTFMVAAAITGGDILIENAVPEHLRSITAKMEEMGVKIIEENEGVRVIGPDKLKAVDIKTMPHPGFPTDMQSQMMALLLQADGTSMITETVFENRFMHVEEFRRMNADIKIEGRSVIMNGPNSLQGAEVGATDLRAAAALILAGLVSEGYTRVTELKHLDRGYVDFHKKLAALGATIERVNEKVEEVKEQEVSDLHA
- protein production: not failed

Sequence: MEKIRQPTHAGSWYTDNPTKLSSDLEEWLNATGLTKSPDVRGVIAPHAGYSYSGRAAAYAFANIDPTNISRIFLLGPSHHFYTPKCALSTATVYKTPIGNLPVDVEMIKEIRAMGKFGMMDLRVDEAEHSMEMHLPYLAKVFEGNNVKVVPILVGAVSPENEAMYGELLAKYVDDPKNFFSVSSDFCHWGSRFNYMHYDNTHGAIHKSIEALDKKGMDIIETGDPDAFKKYLLEFENTICGRHPISIFLHMLKHSSSKIKINFLRYEQSSQCQTMRDSSVSYASAAAKLET
- protein production: failed

Sequence: MEKKILKPLRKTVSELLCVICTSLLLISLFSFTALAGDINTSPNINSDDKISASVVSKLTEISGDEQIPVIITLPNQKIAFNTAAGKYQIESEQKNLIKFLENEKSKNKVNKIKPIKIINAVAAKVNPEVLASLAGRSDVSKIELDEVVSIVGQSEPSFKKIAASTTLSTAASTNAWGVDKIDAPAVWQQGINGKGITVAVVDTGIDATHPDLDDLDDNPSTNDPKVVGWVDYINSQSSAYDDNGHGTHVAGIVSGTGDNGIQTGVAPGTKLLVAKVFDSEGDGYLSTCILGFEWAVNNNARIISFSGGSPEHDSLFTTMINKVVAAGVVPVIAAGNDGDGSGTITCPGDELNSLTVGATDSSDAIADFSSRGPVTLDDQTYIKPDISAPGVSIPSTYPGDGYAYGDGTSMAAPHVSGTVALILEKKPTMTPAEVKKELESTAVDLGSAGKDNDYGSGRIDAYDAVFGKGPVANFYAKPTSGKVPLTVAFTDTSTGTPTKWRWNFGDGSKSFLQNPKHKYSKAGTYTVNLTVKNAKGKNTVTKTDYIVVISKPTAAFSASPTSGKAPLTVAFTDKSSGNPTAWKWSFGDGTISREKNPTHQYLQEGKYKITLTVSNAAGKSTTKKINYIKVTTNTRPGIYSESK
- protein production: failed

Sequence: MEKLEVGQLAPDFRLKNSDGVEISLKDLLHKKVVLYFYPKDNTPGCTLEAKDFSALFSEFEKKNAVVVGISPDNAQSHQKFISQCSLNVILLCDEDKKAANLYKAYGKRMLYGKEHLGIIRSTFIINTQGVLEKCFYNVKAKGHAQKVLESL
- protein production: failed

Sequence: MEKQPNKLIREKSPYLLQHAWNPVDWHPWGEEAFSRARETGRPIFLSSGYSTCHWCHVMEHESFENAETAALLNRHFVPVKLDREEHPDVDHLYMMFVQATTGRGGWPMSVWMTPDLKPFFGGSYFPATERWGMPSFRSVLEHLANLWEHDRPRLLASAGSIMDQLSGLTRP
- protein production: failed

Sequence: MEKQSPTALPGTPITDMPAAAETLLALMHAQAEVARLSEREQLFSSLLVSVNAVLWAFDWETQRMIYVSPAYEHIFGRSAGLLLADYSEWRDSIYPDDLNYAERSLSEVIEKGAVEDREYRIIRADGEVRWLSDKCFVSHRADASQRLIVVGIAEDITDKKHLEDELQRLATTDVLTQSSNRRHFFECAQREFELARLNGTPLAFLLLDIDDFKLVNDTYGHQEGDTVLQRIAESGRSALRRGDLFGRIGGEEFAAVFPGCAPEMAMQIAERLQREIQRQNFQANGSTFSITASQGLTNLGPEDQGLEALYGRADAAMYQAKRQGKNQIVLV
- protein production: failed

Sequence: MEKSAGRGRPSVSVERIVATALEAVDEVGAQAFNMRMLAERLGSGTATLYRHFASKDEILIYVVDSVLGELLADQPEAVELVPQGQGSEGYSWQKACASGAERLYGVLRRHPGILPLLVSQIPIGPNGLKRREQGIALFLANGFPAELAARAYTSVAHYVLGFAIQQHSSASSEAAEGEELVEFFAALDASEYPAIATAGRHLPGISVEEEFRFGLKLIIDGLELAASAWRKADGC
- protein production: failed

Sequence: MEKTVIYLLEDGYVDFVVEKIRTKMEKLLEEKDKIFVVLAGGRTPLPVYEKLAEQKFPWNRIHFFLSDERYVPLDSDQSNFRNINEVLFSRAKIPSGNVHYVDTSLPIEKACEKYEREIRSATDQFDLAILGMGPDGHVASIFDLETGNKDNLVTFTDPSGDPKVPRVTLTFRALNTSLYVLFLIRGKEKINRLTEILKDTPLPAYFVRGKEKTVWFVGK
- protein production: not failed

Sequence: MEKVAFIGLGAMGYPMAGHLARRFPTLVWNRTFEKALRHQEEFGSEAVPLERVAEARVIFTCLPTTREVYEVAEALYPYLREGTYWVDATSGEPEASRRLAERLREKGVTYLDAPVSGGTSGAEAGTLTVMLGGPEEAVERVRPFLAYAKKVVHVGPVGAGHAVKAINNALLAVNLWAAGEGLLALVKQGVSAEKALEVINASSGRSNATENLIPQRVLTRAFPKTFALGLLVKDLGIAMGVLDGEKAPSPLLRLAREVYEMAKRELGPDADHVEALRLLERWGGVEIR
- protein production: not failed

Sequence: MEKYNSLSDFLKEFYIPTYVLSAETEEEEEEESRPTPASPVLVFINSKSGGQLGGELILTYRSLLNHNQVFDLDQETPDKVLRRIYLNLERLKDDDFARQIREKLKIIVAGGDGTAGWLLGVVCDLKLSHPPPIATVPLGTGNNLPFAFGWGKKNPGTDRTAVESFLEQVLKAKVMKIDNWHILMRMKTPKEGGSCDPVAPLELPHSLHAFHRVSPTDELNKEGCHTFRGGFWNYFSLGMDAQISYAFHSERKLHPEKFKNQLVNQSTYVKLGCTQGWFCASLFHPASRNIAQLAKVKIATRNGQWQDLHIPHSIRSIVCLNLPSFSGGLNPWGTPNPRKQRDRGLTPPFVDDGLIEVVGFRNAWHGLVLLAPNGHGTRLAQANRIRFEFHKGATDHTFMRMDGEPWKQPLPLDDETVMVEISHLGQVNMLATHDCRSRSVFDPSTPRHQDGAEDYDDNEDDSVAEGEEFRKFGAADTFKIPDEGEHSNKKGRASRRRNSNVHGWSHVL
- protein production: not failed

Sequence: MEKYPEIQQMRSKMREGDDTNEFKIRPLKGLSHPSGNLQMQRFQEDRRERIHSIRKRENQDGRLDLIGVVGEITVVIDDVVYEEEKLRKVVFTMKG
- protein production: not failed
